“And” between values parts separate entries of the source, which are not always exact repeats. Equal values may be shown once.
B1: 7α-hydroxysteroid dehydrogenase from Clostridium absonum (enzyme, UniProt G9FRD7 1-262, looked up)
chain: MKRLEGKVAIVTSSTRGIGRASAEALAKEGALVYLAARSEELANEVIADIKKQGGVAKFVYFNAREEETYTSMVEKVAEAEGRIDILVNNYGGTNVNLDKNLTAGDTDEFFRILKDNVQSVYLPAKAAIPHMEKVGGGSIVNISTIGSVVPDISRIAYCVSKSAINSLTQNIALQYARKNIRCNAVLPGLIGTRAALENMTDEFRDSFLGHVPLNRVGRPEDIANAVLYYASDDSGYVTGMIHEVAGGFALGTPQYSEYCPR
notes: 7α-hydroxysteroid dehydrogenase (CA 7α-HSDH), Clostridium absonum; the gene was cloned into pGEX-6p-1; Crystallised with NADP+ and TCDCA; also called CA 7α-HSDH; 7α-HSDH; source: E. coli BL21 (DE3), GST-fused from pGEX-6p-1, purified (monoQ, superdex 75)

Key:
[1] = system: NC(=O)c1ccc[n+]([C@@H]2O[C@H](COP(=O)(O)OP(=O)(O)OC[C@H]3O[C@@H](n4cnc5c(N)ncnc54)[C@H](OP(=O)(O)O)[C@@H]3O)[C@@H](O)[C@H]2O)c1; assay: purified protein; settings: assay conditions by cited earlier methods; co-substrate not given; SD in parentheses; crystal structure of complex with TCDCA also solved; varied: cofactor
[2] = target: the molecule itself; assay: SEC; purified CA 7α-HSDH in aqueous solution; standard proteins of 669, 440, 158, 75, 44, 29 and 13.7 kDa; the dimer fraction of the first run was collected and run again; the tetramer fractions were checked by MS

Row | Molecule | Km [1] | kcat [1] [s⁻¹] | kcat/Km [1] [M⁻¹ s⁻¹] | stoichiometry N [2]
1 | CA 7α-HSDH (Clostridium sardiniense) | 0.34 (0.01) mM | 13.8 | 40100 | –
2 | B1 | – | – | – | 2 and 4

— article PMC4785404, “The three-dimensional structure of Clostridium absonum 7α-hydroxysteroid dehydrogenase: new insights into the conserved arginines for NADP(H) recognition” (Scientific Reports, 2016)
